B1: Bcl2.2169: shRNA, SEQ ID NO: 96 (also SEQ ID NO: 42) (nucleic acid)
chain: TGCTGTTGACAGTGAGCGACAGTAGAAATTATATGCATTATAGTGAAGCCACAGATGTATAATGCATATAATTTCTACTGCTGCCTACTGCCTCGGA
B2: Bcl2.906: shRNA, SEQ ID NO: 98 (nucleic acid)
chain: TGCTGTTGACAGTGAGCGCGCACAGGAATTTTGTTTAATATAGTGAAGCCACAGATGTATATTAAACAAAATTCCTGTGCATGCCTACTGCCTCGGA
B3: Mcl1.1334: shRNA, SEQ ID NO: 139 (also SEQ ID NO: 43) (nucleic acid)
chain: TGCTGTTGACAGTGAGCGAAAGAGTCACTGTCTGAATGAATAGTGAAGCCACAGATGTATTCATTCAGACAGTGACTCTTCTGCCTACTGCCTCGGA
B4: Rpa1.1620: shRNA, SEQ ID NO: 175 (also SEQ ID NO: 57) (nucleic acid)
chain: TGCTGTTGACAGTGAGCGCCCGCATGATCTTATCGGCAAATAGTGAAGCCACAGATGTATTTGCCGATAAGATCATGCGGTTGCCTACTGCCTCGGA
B5: Rpa3.561: shRNA, SEQ ID NO: 176 (also SEQ ID NO: 61) (nucleic acid)
chain: TGCTGTTGACAGTGAGCGCAAAAGTGATACTTCAATATATTAGTGAAGCCACAGATGTAATATATTGAAGTATCACTTTTATGCCTACTGCCTCGGA
B6: Myc.1888: shRNA, SEQ ID NO: 146 (nucleic acid)
chain: TGCTGTTGACAGTGAGCGAGAAACGACGAGAACAGTTGAATAGTGAAGCCACAGATGTATTCAACTGTTCTCGTCGTTTCCTGCCTACTGCCTCGGA
B7: Myc.1891: shRNA, SEQ ID NO: 147 (nucleic acid)
chain: TGCTGTTGACAGTGAGCGCACGACGAGAACAGTTGAAACATAGTGAAGCCACAGATGTATGTTTCAACTGTTCTCGTCGTTTGCCTACTGCCTCGGA
B8: Myc.2105: shRNA, SEQ ID NO: 148 (nucleic acid)
chain: TGCTGTTGACAGTGAGCGCCTGCCTCAAACTTAAATAGTATAGTGAAGCCACAGATGTATACTATTTAAGTTTGAGGCAGTTGCCTACTGCCTCGGA
B9: Pcna.1186: shRNA, SEQ ID NO: 159 (nucleic acid)
chain: TGCTGTTGACAGTGAGCGAATCAATGATCTTGACGCTAAATAGTGAAGCCACAGATGTATTTAGCGTCAAGATCATTGATGTGCCTACTGCCTCGGA
B10: Pcna.566: shRNA, SEQ ID NO: 160 (nucleic acid)
chain: TGCTGTTGACAGTGAGCGATCGGGTGAATTTGCACGTATATAGTGAAGCCACAGATGTATATACGTGCAAATTCACCCGACTGCCTACTGCCTCGGA
B11: Kit.2021: neutral control shRNA, SEQ ID NO: 195 (nucleic acid)
chain: TGCTGTTGACAGTGAGCGACACCCTGGTCATTACAGAATATAGTGAAGCCACAGATGTATATTCTGTAATGACCAGGGTGGTGCCTACTGCCTCGGA
B12: Kit.221: neutral control shRNA, SEQ ID NO: 196 (nucleic acid)
chain: TGCTGTTGACAGTGAGCGCCAGATGGACTTTCAAGACCTATAGTGAAGCCACAGATGTATAGGTCTTGAAAGTCCATCTGATGCCTACTGCCTCGGA
B13: Kit.4813: neutral control shRNA, SEQ ID NO: 197 (nucleic acid)
chain: TGCTGTTGACAGTGAGCGATTGGATATTCTTGAAAGTTTATAGTGAAGCCACAGATGTATAAACTTTCAAGAATATCCAAGTGCCTACTGCCTCGGA
B14: Lin28.2180: neutral control shRNA, SEQ ID NO: 198 (nucleic acid)
chain: TGCTGTTGACAGTGAGCGCAGCGTGATGGTTGATAGCTAATAGTGAAGCCACAGATGTATTAGCTATCAACCATCACGCTATGCCTACTGCCTCGGA
B15: Lin28.2186: neutral control shRNA, SEQ ID NO: 199 (nucleic acid)
chain: TGCTGTTGACAGTGAGCGAATGGTTGATAGCTAAAGGAAATAGTGAAGCCACAGATGTATTTCCTTTAGCTATCAACCATCTGCCTACTGCCTCGGA
B16: Lin28.2270: neutral control shRNA, SEQ ID NO: 200 (nucleic acid)
chain: TGCTGTTGACAGTGAGCGCAACGGGACAAATGCAATAGAATAGTGAAGCCACAGATGTATTCTATTGCATTTGTCCCGTTTTGCCTACTGCCTCGGA
B17: Lin28.2430: neutral control shRNA, SEQ ID NO: 201 (nucleic acid)
chain: TGCTGTTGACAGTGAGCGATGGCCTAGTTGTGTAAATATATAGTGAAGCCACAGATGTATATATTTACACAACTAGGCCACTGCCTACTGCCTCGGA
B18: Luciferase.1309: neutral control shRNA, SEQ ID NO: 202 (nucleic acid)
chain: TGCTGTTGACAGTGAGCGCCCGCCTGAAGTCTCTGATTAATAGTGAAGCCACAGATGTATTAATCAGAGACTTCAGGCGGTTGCCTACTGCCTCGGA
B19: Map2k1.1200: neutral control shRNA, SEQ ID NO: 203 (nucleic acid)
chain: TGCTGTTGACAGTGAGCGAGCCTCTCAGCTCATATGGAATTAGTGAAGCCACAGATGTAATTCCATATGAGCTGAGAGGCCTGCCTACTGCCTCGGA
B20: Map2k1.2337: neutral control shRNA, SEQ ID NO: 204 (nucleic acid)
chain: TGCTGTTGACAGTGAGCGCCAAGATGTTTATCAAATCTAATAGTGAAGCCACAGATGTATTAGATTTGATAAACATCTTGATGCCTACTGCCTCGGA
B21: Mn1.1403: neutral control shRNA, SEQ ID NO: 205 (nucleic acid)
chain: TGCTGTTGACAGTGAGCGCAACGGTACCCTAGACAACCAATAGTGAAGCCACAGATGTATTGGTTGTCTAGGGTACCGTTATGCCTACTGCCTCGGA
B22: Mn1.2545: neutral control shRNA, SEQ ID NO: 206 (nucleic acid)
chain: TGCTGTTGACAGTGAGCGCCAGCGCGGTTGCAGCCGGTAATAGTGAAGCCACAGATGTATTACCGGCTGCAACCGCGCTGTTGCCTACTGCCTCGGA
B23: Mn1.5760: neutral control shRNA, SEQ ID NO: 207 (nucleic acid)
chain: TGCTGTTGACAGTGAGCGCTTGGTTTAGCAGGAAGAATAATAGTGAAGCCACAGATGTATTATTCTTCCTGCTAAACCAAATGCCTACTGCCTCGGA
B24: Mn1.5864: neutral control shRNA, SEQ ID NO: 208 (nucleic acid)
chain: TGCTGTTGACAGTGAGCGCATCGCTATTGCACATGTATAATAGTGAAGCCACAGATGTATTATACATGTGCAATAGCGATTTGCCTACTGCCTCGGA
B25: Ptgs2.1082: neutral control shRNA, SEQ ID NO: 209 (nucleic acid)
chain: TGCTGTTGACAGTGAGCGCCAAGATAGTGATCGAAGACTATAGTGAAGCCACAGATGTATAGTCTTCGATCACTATCTTGATGCCTACTGCCTCGGA
B26: Ptgs2.2058: neutral control shRNA, SEQ ID NO: 210 (nucleic acid)
chain: TGCTGTTGACAGTGAGCGCCCGGTGTTTGTCCTTTAAATATAGTGAAGCCACAGATGTATATTTAAAGGACAAACACCGGATGCCTACTGCCTCGGA
B27: Ptgs2.284: neutral control shRNA, SEQ ID NO: 211 (nucleic acid)
chain: TGCTGTTGACAGTGAGCGAAAGAATCAAATTACTGCTGAATAGTGAAGCCACAGATGTATTCAGCAGTAATTTGATTCTTGTGCCTACTGCCTCGGA
B28: Ptgs2.3711: neutral control shRNA, SEQ ID NO: 212 (nucleic acid)
chain: TGCTGTTGACAGTGAGCGCAACGTTCATGGATAAATTCTATAGTGAAGCCACAGATGTATAGAATTTATCCATGAACGTTATGCCTACTGCCTCGGA
B29: Renilla.713: neutral control shRNA, SEQ ID NO: 213 (nucleic acid)
chain: TGCTGTTGACAGTGAGCGCAGGAATTATAATGCTTATCTATAGTGAAGCCACAGATGTATAGATAAGCATTATAATTCCTATGCCTACTGCCTCGGA
B30: Trp53.1224: neutral control shRNA, SEQ ID NO: 214 (nucleic acid)
chain: TGCTGTTGACAGTGAGCGCCCACTACAAGTACATGTGTAATAGTGAAGCCACAGATGTATTACACATGTACTTGTAGTGGATGCCTACTGCCTCGGA
B31: BRAF.3750: neutral control shRNA, SEQ ID NO: 191 (nucleic acid)
chain: TGCTGTTGACAGTGAGCGCTAGCATAATGACAATTATTTATAGTGAAGCCACAGATGTATAAATAATTGTCATTATGCTAATGCCTACTGCCTCGGA

The molecules below were run on tet-on competent MLL/AF9+Nras AML (assay: Pooled negative selection RNAi screening (deep sequencing)). Details: deep sequencing reads, On Dox compared to T0.
Type: cell-based, mouse
Outline: (§1)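 A pool of 1230 tet-regulated shRNAs (TRMPV-type) was retrovirally transduced at mostly single copy and ~1000-fold representation into tet-on MLL/AF9+Nras AML cells or immortalized murine embryonic fibroblasts, then cultured on or off doxycycline. shRNA-expressing cells were FACS-sorted, and shRNA representation was quantified by PCR and deep sequencing of genomic DNA, with depletion on dox compared against t0 and off dox.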

| Molecule | Fold depletion in AML |
| --- | --- |
| B1 | 12.61 Fold |
| B2 | 12.28 Fold |
| B3 | 104.03 Fold |
| B4 | 2,891.47 Fold |
| B5 | 8.81 Fold |
| B6 | 8.48 Fold |
| B7 | 9.05 Fold |
| B8 | 9.19 Fold |
| B9 | 51.94 Fold |
| B10 | 9.89 Fold |
| B11 | 1.92 Fold |
| B12 | 1.19 Fold |
| B13 | 0.81 Fold |
| B14 | 1.15 Fold |
| B15 | 1.43 Fold |
| B16 | 0.22 Fold |

| Molecule | Fold depletion in AML |
| --- | --- |
| B17 | 1.37 Fold |
| B18 | 1.22 Fold |
| B19 | 2.26 Fold |
| B20 | 0.24 Fold |
| B21 | 1.94 Fold |
| B22 | 0.81 Fold |
| B23 | 0.38 Fold |
| B24 | 0.61 Fold |
| B25 | 0.51 Fold |
| B26 | 1.78 Fold |
| B27 | 0.34 Fold |
| B28 | 1.38 Fold |
| B29 | 1.29 Fold |
| B30 | 0.10 Fold |
| B31 | 0.76 Fold |

Each molecule was assayed on immortalized murine embryonic fibroblasts (Mef) in the same assay as above. Details: deep sequencing reads, on dox compared to initial representation.
Type: cell-based
Outline: as §1

| Molecule | Fold depletion in Mef [Fold] |
| --- | --- |
| B1 | 1.62 |
| B2 | 0.98 |
| B3 | 3.00 |
| B4 | 10.23 |
| B5 | 10.63 |
| B6 | 3.83 |
| B7 | 4.62 |
| B8 | 11.70 |
| B9 | 11.42 |
| B10 | 6.15 |
| B11 | 1.61 |
| B12 | 0.69 |
| B13 | 0.84 |
| B14 | 0.80 |
| B15 | 1.55 |
| B16 | 1.10 |

| Molecule | Fold depletion in Mef [Fold] |
| --- | --- |
| B17 | 0.89 |
| B18 | 0.52 |
| B19 | 1.24 |
| B20 | 0.68 |
| B21 | 0.77 |
| B22 | 0.29 |
| B23 | 0.91 |
| B24 | 1.09 |
| B25 | 0.51 |
| B26 | 1.27 |
| B27 | 1.21 |
| B28 | 1.46 |
| B29 | 1.02 |
| B30 | 0.84 |
| B31 | 1.08 |
